Sequences and labels used below:
B1: mRNA-splicing (parent)
chain: AGUUGCUGCUGGGAGCUCCAGCACAGUGAAAUGGACAGAAGGGCAGAGCAA

The variants in this data set derive from B1. Put plainly: exon inclusion enrichment index; higher = more inclusion; WT1 exon 5 minigene, HEK293.
Consider AGUUUUGGAUGGGAGCUCCAGCACAGUGAAAUGGACAGAAGGGCAGAGCAA, for which the “exon inclusion enrichment index” value worked out at 0.469. As for AGUUUUUGCUGGGAGCUCCAGCACAGUGAAAUGGACAGAAGGGCAGAGCAA, the figure is 0.0058; as for AGUUUGUGCUGGGAGCUCCAGCACAGUGAAAUGGACAGAAGGGCAGAGCAA, 0.00229. Take AGUUUUCACAGGGAGCUCCAGCACAGUGAAAUGGACAGAAGGGCAGAGCAA: the “exon inclusion enrichment index” value was found to be 0.0434. On to AGUUUUCACCGGGAGCUCCAGCACAGUGAAAUGGACAGAAGGGCAGAGCAA, for which the “exon inclusion enrichment index” value is 1.85. Consider AGUUUCUUAGGGGAGCUCCAGCACAGUGAAAUGGACAGAAGGGCAGAGCAA, for which the “exon inclusion enrichment index” value came out at 0.0162. For AGUUUCUUAAGGGAGCUCCAGCACAGUGAAAUGGACAGAAGGGCAGAGCAA, the “exon inclusion enrichment index” value turned out to be 0.0322. Consider AGUUUCUUACGGGAGCUCCAGCACAGUGAAAUGGACAGAAGGGCAGAGCAA, for which the “exon inclusion enrichment index” value was determined as 0.61. AGUUUCUUUUGGGAGCUCCAGCACGGUGAAAUGGACAGAAGGGCAGAGCAA: the “exon inclusion enrichment index” value amounted to 0.618. Next, AGUUUCUUUUGGGAGCUCCAGCACUGUGAAAUGGACAGAAGGGCAGAGCAA: 0.289; AGUUUCUUUUGGGAGCUCCAGCACCGUGAAAUGGACAGAAGGGCAGAGCAA: 0.793. As for AGUUUCUUUUGGGAGCUCCAGCACUCUGAAAUGGACAGAAGGGCAGAGCAA, the figure is 0.219. Take AGUUUCUUUUGGGAGCUCCAGCACUAUGAAAUGGACAGAAGGGCAGAGCAA: the “exon inclusion enrichment index” value turned out to be 0.176. As for AGUUUCUUUUGGGAGCUCCAGCACUUUGAAAUGGACAGAAGGGCAGAGCAA, the figure is 0.0927; as for AGUUUUUCUCGGGAGCUCCAGCACAGUGAAAUGGACAGAAGGGCAGAGCAA, 0.672.

AGUUUCUUUUGGGAGCUCCAGCACGCUGAAAUGGACAGAAGGGCAGAGCAA: the “exon inclusion enrichment index” value was determined as 0.74. Next, AGUUUCUUUUGGGAGCUCCAGCACGAUGAAAUGGACAGAAGGGCAGAGCAA: 0.765; AGUUUCUUUUGGGAGCUCCAGCACGUUGAAAUGGACAGAAGGGCAGAGCAA: 0.38.

Consider AGUUUCUUUUGGGUCCUCCAGCACAGUGAAAUGGACAGAAGGGCAGAGCAA, for which the “exon inclusion enrichment index” value turned out to be 0.0163. AGUUUCUUUUGGGUACUCCAGCACAGUGAAAUGGACAGAAGGGCAGAGCAA: the “exon inclusion enrichment index” value was found to be 0.00362. Next, AGUUUCUUUUGGGUUCUCCAGCACAGUGAAAUGGACAGAAGGGCAGAGCAA: 0.00524. As for AGUUUCUUUUGGGAGCUCCAGCUCAGUGAAAUGGACAGAAGGGCAGAGCAA, the figure is 0.0459; as for AGUUUCUUUUGGGAGCUCCAGCCCAGUGAAAUGGACAGAAGGGCAGAGCAA, 0.1. On to AGUUUCUUUUGGGAGCUCCAGCGCAGUGAAAUGGACAGAAGGGCAGAGCAA, for which the “exon inclusion enrichment index” value came out at 0.252. For AGUUUGGGAUGGGAGCUCCAGCACAGUGAAAUGGACAGAAGGGCAGAGCAA, the “exon inclusion enrichment index” value was found to be 0.0617. As for AGUUUUCGACGGGAGCUCCAGCACAGUGAAAUGGACAGAAGGGCAGAGCAA, the figure is 2.91. As to AGUUUCUUUUGGGAGCUCCGGCACAGUGAAAUGGACAGAAGGGCAGAGCAA, the “exon inclusion enrichment index” value amounted to 0.322. With AGUUUCUUUUGGGAGCUCCCGCACAGUGAAAUGGACAGAAGGGCAGAGCAA, the “exon inclusion enrichment index” value came to 0.124. AGUUUCUUUUGGGAGCUCCUGCACAGUGAAAUGGACAGAAGGGCAGAGCAA: the “exon inclusion enrichment index” value is 0.191.

As for AGUUUCUUUUGGGAGCUCCUUCACAGUGAAAUGGACAGAAGGGCAGAGCAA, the “exon inclusion enrichment index” value is 0.0618. On to AGUUUCUUUUGGGAGCUCCUCCACAGUGAAAUGGACAGAAGGGCAGAGCAA, for which the “exon inclusion enrichment index” value amounted to 0.1. For the variant AGUUUCUUUUGGGAGCUCCUACACAGUGAAAUGGACAGAAGGGCAGAGCAA, the “exon inclusion enrichment index” value turned out to be 0.0475. Next, AGUUUCUUGAGGGAGCUCCAGCACAGUGAAAUGGACAGAAGGGCAGAGCAA: 0.128; AGUUUCUUGCGGGAGCUCCAGCACAGUGAAAUGGACAGAAGGGCAGAGCAA: 0.741; AGUUUCUUGGGGGAGCUCCAGCACAGUGAAAUGGACAGAAGGGCAGAGCAA: 0.108. Consider AGUUUGAUUUGGGAGCUCCAGCACAGUGAAAUGGACAGAAGGGCAGAGCAA, for which the “exon inclusion enrichment index” value is 0.198.

As to AGUUUGAUAUGGGAGCUCCAGCACAGUGAAAUGGACAGAAGGGCAGAGCAA, the “exon inclusion enrichment index” value worked out at 0.241. Consider AGUUUGCGACGGGAGCUCCAGCACAGUGAAAUGGACAGAAGGGCAGAGCAA, for which the “exon inclusion enrichment index” value came to 2.41. As to AGUUUGUUUUGGGAGCUCCAGCACAGUGAAAUGGACAGAAGGGCAGAGCAA, the “exon inclusion enrichment index” value was 0.0807. Next, AGUUUUAUAUGGGAGCUCCAGCACAGUGAAAUGGACAGAAGGGCAGAGCAA: 0.0673. For AGUUUUAUUUGGGAGCUCCAGCACAGUGAAAUGGACAGAAGGGCAGAGCAA, the “exon inclusion enrichment index” value was 0.0321. In the case of AGUUUGCUUUGGGAGCUCCAGCACAGUGAAAUGGACAGAAGGGCAGAGCAA, the “exon inclusion enrichment index” value came to 0.349. As for AGUUUCUUUUGGGAGCUCCAGCACAGUGAAAUGGACAGAAGGGCAGAGCAA, the “exon inclusion enrichment index” value amounted to 0.16. On to AGUUUCUUGUGGGAGCUCCAGCACAGUGAAAUGGACAGAAGGGCAGAGCAA, for which the “exon inclusion enrichment index” value came out at 0.267. With AGUUUCUUAUGGGAGCUCCAGCACAGUGAAAUGGACAGAAGGGCAGAGCAA, the “exon inclusion enrichment index” value was 0.194. Consider AGUUUGCGCCGGGAGCUCCAGCACAGUGAAAUGGACAGAAGGGCAGAGCAA, for which the “exon inclusion enrichment index” value worked out at 2.34.

Turning to AGUUUCUUUUGGGAGCUCCAGCGUAGUGAAAUGGACAGAAGGGCAGAGCAA, the “exon inclusion enrichment index” value came out at 0.0193. Consider AGUUUCUUUUGGGAGCUCCAGCGAAGUGAAAUGGACAGAAGGGCAGAGCAA, for which the “exon inclusion enrichment index” value was 0.532. Consider AGUUUCUUUUGGGAGCUCCAGCGGAGUGAAAUGGACAGAAGGGCAGAGCAA, for which the “exon inclusion enrichment index” value is 0.604. On to AGUUUCUUUUGGGCGCUCCAGCACAGUGAAAUGGACAGAAGGGCAGAGCAA, for which the “exon inclusion enrichment index” value was 0.108. For AGUUUCUUUUGGGUGCUCCAGCACAGUGAAAUGGACAGAAGGGCAGAGCAA, the “exon inclusion enrichment index” value turned out to be 0.0126.
